Data on 2 molecules can be found in patent US20130266567A1 (published 2013).

“And” between values parts separate entries of the source, which are not always exact repeats. Equal values may be shown once.

The target in test [1] is T1, Human serum albumin (human, UniProt P02768 25-609).
T1 construct: coupled to CM5 BIAcore chip; also called human SA; HSA
Put plainly: SPR, BIAcore 3000, serum albumin coupled to CM5 chip;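 note: Cross-reactivity of anti-serum albumin domain antibodies measured against human, cynomolgus monkey, rat and mouse serum albumin, binding kinetics giving Kd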; second of two independent measurements on different protein batches. In general terms: In SPR one partner is held on a chip, and binding of the other changes the refractive index at the surface.

The target in test [2] is T2, Cynomolgus serum albumin (Cynomolgus monkey, UniProt A2V9Z4 25-608).
T2 construct: mature; purified native protein; coupled to CM5 BIAcore chip; also called cyno SA; CSA
Put plainly: SPR, BIAcore 3000, serum albumin coupled to CM5 chip.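 Note: Cross-reactivity of anti-serum albumin domain antibodies measured against human, cynomolgus monkey, rat and mouse serum albumin, binding kinetics giving Kd.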
Description: (§1) Cross-reactivity of the AlbudAbs™ (ie, anti-serum albumin dAbs) was determined against human, Cynomolgus monkey (cyno), rat and mouse serum albumin using surface plasmon resonance (SPR). In this case, Biacore™ was used. Biacore™ 2000/3000 was used for the supernatant screens and determination of binding kinetic all of dAbs described herein. Biacore™ T100 was used for the determination of cross-reactivity of lead Vk and VH Albudabs to a wider range of species' SAs (12 in total). Protein samples were run on the T100 BIAcore as described for the BIAcore2000/3000 experiments. […] Where appropriate, a kinetic Langmuir 1:1 fitting model was used.

For test [3], the target named is T3, Mouse serum albumin (mouse, UniProt P07724 25-608).
T3 construct: mature; bought purified protein; coupled to CM5 BIAcore chip; also called mouse SA; MSA
Described as above.
Description: as §1

Test [4] has as its target T4, Rat serum albumin (rat, UniProt P02770 25-608).
T4 construct: coupled to CM5 BIAcore chip; also called rat SA; RSA
Described as above.
Description: as §1

The target of test [5] is T1, Human serum albumin. Put plainly: SPR, BIAcore 3000, serum albumin coupled to CM5 chip; first of two independent measurements on different protein batches.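 Note: Cross-reactivity of anti-serum albumin domain antibodies measured against human, cynomolgus monkey, rat and mouse serum albumin, binding kinetics giving Kd.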
Description: as §1
The next test has as its target Rabbit serum albumin (rabbit, UniProt P49065 25-608). Put plainly: SPR, BIAcore T100.
Test [6] addresses T1, Human serum albumin. Put plainly: SPR, BIAcore 3000, serum albumin coupled to CM5 chip.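 Note: Cross-reactivity of anti-serum albumin domain antibodies measured against human, cynomolgus monkey, rat and mouse serum albumin, binding kinetics giving Kd.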
Description: as §1
The next test deals with Ferret serum albumin (ferret). Put plainly: SPR, BIAcore T100, equilibrium KD.
Another test concerns the target Pig serum albumin (pig, UniProt P08835 25-607). Put plainly: SPR, BIAcore T100, equilibrium KD.
The next test concerns the target Mini Pig serum albumin (mini pig). Put plainly: SPR, BIAcore T100, equilibrium KD.
For another test, the target named is Sheep serum albumin (sheep, UniProt P14639 25-607). Put plainly: SPR, BIAcore T100, equilibrium KD.
For the next test, the target named is Dog serum albumin (dog, UniProt P49822 25-608). Put plainly: SPR, BIAcore T100, equilibrium KD.
The target in test [7] is T2, Cynomolgus serum albumin. Put plainly: SPR, BIAcore T100, equilibrium KD.
Description: as §1
In test [8] the target is T1, Human serum albumin. Put plainly: SPR, BIAcore T100, equilibrium KD.
Description: as §1
Test [9] concerns the target T3, Mouse serum albumin. Put plainly: SPR, BIAcore T100, equilibrium KD.
Description: as §1
The target of test [10] is T4, Rat serum albumin. Put plainly: SPR, BIAcore T100, equilibrium KD.
Description: as §1
The target of another test is Marmoset serum albumin (marmoset). Put plainly: SPR, BIAcore T100, equilibrium KD.

Description for Dog serum albumin: as §1
Description for Ferret serum albumin: as §1
Description for Marmoset serum albumin: as §1
Description for Mini Pig serum albumin: as §1
Description for Rabbit serum albumin: as §1
Description for Sheep serum albumin: as §1

B1: DOM7r-36-104 (VHH)
VHH: EVQLLESGGGLVQPGGSLRLSCAASGFTFNHYTMGWVRQAPGKGREWVSLIHPSGTVTYYADSVKGRFTISRDNSKNTLYLQMNSLRAEDTAVYYCAKWATRGFDYWGQGTLVTVSS
notes: VH immunoglobulin single variable domain (dAb, AlbudAb), not a camelid VHH; tested with a myc tag; not shown: myc tag
B1: the Kd with Human serum albumin [1] is 9 nM; in the test with Cynomolgus serum albumin [2] it was 149 nM and 360 nM; with Mouse serum albumin [3] it was 184 nM and 313 nM; with Rat serum albumin [4], 109 nM and 114 nM; with Human serum albumin [5], 82 nM.

B2: DOM7r-36-107 (VHH)
VHH: EVQLLESGGGLVQPGGSLRLSCAASGFTFNHYTMGWVRQAPGKGREWVSLIHPSGTVTYYADSVKGRFTISRDNSKNTLYLQMNSLRAEDTAVYYCAKWEKKYFDYWGQGTLVTVSS
notes: as for B1
As for B2, the binding result with Rabbit serum albumin is “no binding (tested: dilution series from 5 uM down to 39 nM)”. Further, the Kd in the test with Cynomolgus serum albumin [2] is 127 nM; in the test with Human serum albumin [6] it was 83.4 nM and 44.5 nM; with Mouse serum albumin [3] it was 466 nM; with Rat serum albumin [4], 97.3 nM and 209 nM; in the test with Ferret serum albumin, 740 nM; with Pig serum albumin, 818 nM. In addition, the Kd with Mini Pig serum albumin is 895 nM; in the test with Sheep serum albumin it was 637 nM; with Dog serum albumin it was 719 nM; with Cynomolgus serum albumin [7] it was 21.4 nM; with Human serum albumin [8], 18.3 nM; with Mouse serum albumin [9], 143 nM. For the same molecule, the Kd in the test with Rat serum albumin [10] was 99.2 nM; with Marmoset serum albumin, 111 nM.

As a reminder, the Kd is the free concentration of one partner at which half of the binding sites on the other are occupied at equilibrium, for simple one-to-one binding. A high value points to a looser complex.
